Target: Full-length human RAB5 (RAB5A), purified, fluorescently labelled (human) (UniProt P20339)
Experiment: MST

Chain of UniProt P20339 (P20339 whole entry): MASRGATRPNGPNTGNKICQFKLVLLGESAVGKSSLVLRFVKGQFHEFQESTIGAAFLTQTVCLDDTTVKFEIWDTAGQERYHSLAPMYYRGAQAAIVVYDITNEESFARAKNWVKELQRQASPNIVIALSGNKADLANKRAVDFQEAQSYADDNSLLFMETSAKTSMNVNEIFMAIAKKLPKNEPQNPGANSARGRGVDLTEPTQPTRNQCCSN

6x His-tagged Etf-2^ΔHY (Etf-2 lacking the hydrophobic domain, amino acids 132-151) (natural protein)
Kd: 21.3 nM
